For orientation: Kd means a measure of binding affinity in units of concentration. Low values mean tighter binding, high ones weaker binding. Usually koff stands for a measure of how fast the partners let go of each other. As usually defined, the kon is the second-order rate constant of association. Read a low kon as slower complex formation.

Common to all, as to test: SPR; Biacore T200; receptor domains amine-coupled to CM5-S Series chips; analytes 0-20 nM flowed over; 10 mM HEPES, 150 mM NaCl, 3 mM EDTA, 0.05% surfactant P20, pH 7.4; double-referenced; 1:1 Langmuir fit
Test [1] concerns the target sortilin luminal domain (LD).
In test [2] the target is SorCS2 luminal domain (LD).
In test [3] the target is p75NTR extracellular domain (p75NTR ECD) (UniProt P08138).
p75NTR extracellular domain (p75NTR ECD), sequence (P08138 29-250): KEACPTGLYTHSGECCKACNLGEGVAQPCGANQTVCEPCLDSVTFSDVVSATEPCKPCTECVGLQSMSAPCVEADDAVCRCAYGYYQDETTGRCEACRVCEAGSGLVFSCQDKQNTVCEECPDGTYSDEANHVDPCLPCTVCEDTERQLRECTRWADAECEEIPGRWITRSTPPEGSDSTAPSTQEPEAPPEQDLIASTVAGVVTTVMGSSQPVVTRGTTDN

With “human proBDNF Met66, furin cleavage-resistant (FCR) (natural protein)”, in test [1], the Kd was 3.83 nM, the koff was 0.00504 s⁻¹ and the kon was 1.56e+06 M⁻¹ s⁻¹. Moreover, in test [2], the Kd is 2.23 nM, the koff is 0.00453 s⁻¹ and the kon amounted to 2.14e+06 M⁻¹ s⁻¹. In test [3], this substance returned a Kd of 2.31 nM, an off-rate constant (koff) of 0.00325 s⁻¹ and a kon of 1.55e+06 M⁻¹ s⁻¹.
For the substance “human proBDNF Val66, furin cleavage-resistant (FCR) (natural protein)”, in test [1], the Kd is 2.9 nM, the koff is 0.00746 s⁻¹ and the kon was 2.48e+06 M⁻¹ s⁻¹. In test [2], this substance yielded a Kd of 2.23 nM, a koff of 0.004 s⁻¹ and a kon of 1.79e+06 M⁻¹ s⁻¹. For the same substance, in test [3], the dissociation constant (Kd) came to 2.42 nM, the koff was determined as 0.00394 s⁻¹ and the kon worked out at 1.88e+06 M⁻¹ s⁻¹.
In test [1], “brain-derived neurotrophic factor (BDNF) (ligand)” displayed a Kd of 6.44 nM, a koff of 0.0217 s⁻¹ and a kon of 3.8e+06 M⁻¹ s⁻¹. In test [3], this substance had a Kd of 0.62 nM, a koff of 0.00251 s⁻¹ and a kon of 4.44e+06 M⁻¹ s⁻¹.

The values are drawn from article PMC4773404.
